Measured values taken from patent US20030138894.

Tested on: ACE-2 inhibitor peptide (the most active ACE-2 inhibitor peptide, Example 9)

Substance | hydrolysis of the substrate, hip his-leu (250 mM) by ACE (1.5 nM) | conversion of angiotensin I to A1-9 by ACE-2
Angiotensin converting enzyme (ACE) | the inhibitor did not affect the hydrolysis of the substrate, hip his-leu (250 mM) by ACE (1.5 nM), even at 25 mM | –
recombinant human-ACE-2 | – | This peptide also inhibited conversion of angiotensin I to A1-9 by ACE-2.
